Experimental data reported in publication PMC9133466.
Each block holds one binder with its values, some of them ahead of it. Where no end group is shown, it is not given here. [ ]: non-standard residue; d: D form.

What was measured:
[1] = molecular target: amyloid beta (Aβ) of APP/PS1 mouse brain homogenate (human)
[2] = molecular target: amyloid beta (Aβ) of human brain homogenate (human (endogenous in human brain))
[3] = molecular target: amyloid beta (Aβ) of human brain homogenate (human (endogenous in human brain)); remark: listed apart in the source
[4] = molecular target: amyloid beta (Aβ) of human brain homogenate (human (endogenous in human brain)); remark: listed apart in the source

reduction of Aβ oligomer concentration (Aβ with Aβ) by sFIDA; DGC fraction 10 of APP/PS1 mouse brain homogenate diluted 1:2, 0-50 μM RD2, 0 min to 20 h, 4 °C [1]: 81% | reduction of Aβ oligomer concentration (Aβ with Aβ) by sFIDA; human AD brain homogenate AD2 diluted 1:10, 0.31-20 μM RD2, 24 h [2]: 93% | reduction of Aβ oligomer concentration (Aβ with Aβ) by sFIDA; human AD brain homogenate AD2 diluted 1:20, 0.31-20 μM RD2, 24 h [2]: 95% | reduction of Aβ oligomer concentration (Aβ with Aβ) by sFIDA; human AD brain homogenate AD2 diluted 1:40, 0.31-20 μM RD2, 24 h [2]: 96% | decrease of Aβ oligomer concentration (Aβ with Aβ) by sFIDA; human AD brain homogenate AD2 diluted 1:20, 1.25-20 μM RD2, 0 to 1,365 min [3]: 93% | decrease of Aβ oligomer concentration (Aβ with Aβ) by sFIDA; human AD brain homogenate AD4 diluted 1:20, 1.25-20 μM RD2, 0 to about 23 h [3]: 91% | decrease of Aβ oligomer concentration (Aβ with Aβ) by sFIDA; human AD brain homogenate AD5 diluted 1:20, 1.25-20 μM RD2, 0 to about 23 h [3]: 89% | decrease of Aβ oligomer concentration (Aβ with Aβ) by sFIDA; human AD brain homogenate AD6 diluted 1:20, 1.25-20 μM RD2, 0 to 1,425 min [3]: 90% | reaction rate constant k (1,fast) of Aβ oligomer elimination by RD2 (global double exponential fit, effective RD2 1 and 16 μM); homogenate AD2 (L∗mol^−1∗min^−1) [3]: 2330 | reaction rate constant k (1,fast) of Aβ oligomer elimination by RD2 (global double exponential fit, effective RD2 1 and 16 μM); homogenate AD4 (L∗mol^−1∗min^−1) [3]: 2930 | reaction rate constant k (1,fast) of Aβ oligomer elimination by RD2 (global double exponential fit, effective RD2 1 and 16 μM); homogenate AD5 (L∗mol^−1∗min^−1) [3]: 2370 | reaction rate constant k (1,fast) of Aβ oligomer elimination by RD2 (global double exponential fit, effective RD2 1 and 16 μM); homogenate AD6 (L∗mol^−1∗min^−1) [3]: 1280 | reaction rate constant k (1,slow) of Aβ oligomer elimination by RD2 (global double exponential fit, effective RD2 1 and 16 μM); homogenate AD2 (L∗mol^−1∗min^−1) [3]: 76 | reaction rate constant k (1,slow) of Aβ oligomer elimination by RD2 (global double exponential fit, effective RD2 1 and 16 μM); homogenate AD4 (L∗mol^−1∗min^−1) [3]: 37 | reaction rate constant k (1,slow) of Aβ oligomer elimination by RD2 (global double exponential fit, effective RD2 1 and 16 μM); homogenate AD5 (L∗mol^−1∗min^−1) [3]: 50 | reaction rate constant k (1,slow) of Aβ oligomer elimination by RD2 (global double exponential fit, effective RD2 1 and 16 μM); homogenate AD6 (L∗mol^−1∗min^−1) [3]: 48 | reduction of Aβ oligomer concentration (Aβ with Aβ) by sFIDA; DGC fraction 10 of human AD brain homogenate AD2 diluted 1:10, 5 and 20 μM RD2, 0 to 1,380 min [4]: 92% | reduction of Aβ oligomer concentration (Aβ with Aβ) by sFIDA; DGC fraction 10 of human AD brain homogenate AD6 diluted 1:10, 5 and 20 μM RD2, 0 to 1,380 min [4]: 88% | reduction of Aβ oligomer concentration (Aβ with Aβ) by sFIDA; pooled DGC fractions 4 to 6 of human AD brain homogenate AD2, 20 μM RD2, 1,380 min [4]: 64% | reduction of Aβ oligomer concentration (Aβ with Aβ) by sFIDA; pooled DGC fractions 4 to 6 of human AD brain homogenate AD6, 20 μM RD2, 1,380 min [4]: 62%
B1: RD2 (peptide)
peptide: [dP][dT][dL][dH][dT][dH][dN][dR][dR][dR][dR][dR]-NH2
modifications: N-terminus assumed
SMILES: CC(C)C[C@@H](NC(=O)[C@H](NC(=O)[C@H]1CCCN1)[C@H](C)O)C(=O)N[C@H](Cc1c[nH]cn1)C(=O)N[C@@H](C(=O)N[C@H](Cc1c[nH]cn1)C(=O)N[C@H](CC(N)=O)C(=O)N[C@H](CCCNC(=N)N)C(=O)N[C@H](CCCNC(=N)N)C(=O)N[C@H](CCCNC(=N)N)C(=O)N[C@H](CCCNC(=N)N)C(=O)N[C@H](CCCNC(=N)N)C(N)=O)[C@H](C)O

reduction of Aβ oligomer signal by sFIDA; human AD brain homogenate AD2 diluted 1:40 (similar at 1:10 and 1:20), 0.31-20 μM D1, 24 h [2]: 27%
B2: D1 (peptide)
peptide: [dQ][dS][dH][dY][dR][dH][dI][dS][dP][dA][dQ][dV]-NH2
modifications: N-terminus assumed
SMILES: CC[C@@H](C)[C@@H](NC(=O)[C@@H](Cc1c[nH]cn1)NC(=O)[C@@H](CCCNC(=N)N)NC(=O)[C@@H](Cc1ccc(O)cc1)NC(=O)[C@@H](Cc1c[nH]cn1)NC(=O)[C@@H](CO)NC(=O)[C@H](N)CCC(N)=O)C(=O)N[C@H](CO)C(=O)N1CCC[C@@H]1C(=O)N[C@H](C)C(=O)N[C@H](CCC(N)=O)C(=O)N[C@@H](C(N)=O)C(C)C
